{"source": "patent US7160677", "about": "“Transcription factor DP-1” (Topotarget UK Limited)", "molecules": {"B1": {"name": "E2A distal E2F site WT (-71 to -50) (dsDNA)", "DNA 1": "TAGTTTTCGCGCTTAAATTTGA", "DNA 2": "TCAAATTTAAGCGCGAAAACTA"}, "B2": {"name": "GST-DP-1^84-166 (other)", "chain": "PNTHFVSQNQTSDSSPWSAGKRNRKGEKNGKGLRHFSMKVCEKVQRKGTTSYNEVADELVAEFSAADNHILPNESAYDQKNIR", "notes": "Uncleaved GST fusion; not shown: glutathione-S-transferase (GST)"}}, "key": {"[1]": {"biological_target": "Gal4 activation domain-E2F-1 hybrid protein (pGAD.E2F-1) (yeast) (UniProt P04386)", "assay": "cell-based or functional assay"}, "[2]": {"biological_target": "DP-1(84-249)/E2F-1(89-437) heteromer (Mus musculus / Homo sapiens?, UniProt Q08639;Q01094 Q08639:84-249,Q01094:89-437)", "sequence (Q01094 89-437, one chain of several)": "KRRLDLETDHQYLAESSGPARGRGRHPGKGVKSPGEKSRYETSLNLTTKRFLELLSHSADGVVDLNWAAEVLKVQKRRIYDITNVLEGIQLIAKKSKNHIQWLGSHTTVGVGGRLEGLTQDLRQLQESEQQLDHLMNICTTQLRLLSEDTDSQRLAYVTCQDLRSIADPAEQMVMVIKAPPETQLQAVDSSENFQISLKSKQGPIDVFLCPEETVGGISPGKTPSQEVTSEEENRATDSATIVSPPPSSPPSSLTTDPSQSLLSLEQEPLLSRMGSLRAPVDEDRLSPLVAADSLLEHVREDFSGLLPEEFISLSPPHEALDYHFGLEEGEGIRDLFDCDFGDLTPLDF", "assay": "EMSA; greater than E2F-1 alone", "conditions": "tags: DP-1 thrombin-released or GST; E2F-1 GST", "procedure": "Cell extracts were prepared as previously described (La Thangue et al., 1990). Gel retardation in F9 EC and HeLa cell extracts (about 6.0 µg) in the presence of anti-DP-1 was performed as previously described (Girling et al., 1993), and immunoprecipitation with anti-DP-1 from HeLa cell extracts was performed by standard procedures. The immunoprecipitates were treated with 1% DOC and 1.5% NP40 and the detergent released material assayed for DRTF1/E2F by gel retardation and the presence of E2F-1 by immunoblotting with the anti-E2F-1 monoclonal antibody SQ41 (Kaelin et al., 1992). The anti-DP-1 antibodies, anti-peptide A and anti-peptide 18, have been previously described (Girling et al., 1993). Rabbit anti-E2F-1 antiserum (antiserum 134) was raised against a peptide which represents E2F-1 amino acid sequence 315 to 323. The sequences of the binding sites used to assess DNA binding specificity were derived from the adenovirus E2A promoter (−71 to −50) and were as follows: WT; […] (SEQ ID NO: 7); 62/60, […]; (SEQ ID NO: 8); 63, […] (SEQ ID NO: 9); 64, […] (SEQ ID NO: 10). In FIG. 2a (tracks 1 to 4), the adenovirus E2A promoter (−96 to +68) was used; in all other cases, the distal E2F site in the E2A promoter (sequences −71 to −50) was used. About 100-fold excess of competing binding sites were used in the gel retardation assays. […]"}, "[3]": {"biological_target": "GST-E2F-1(89-437) (UniProt Q01094 Q01094:89-437)", "sequence (Q01094 89-437, one chain of several)": "as above", "assay": "EMSA", "conditions": "tags: GST"}, "[4]": {"biological_target": "DP-1(59-410)/E2F-1(89-437) heteromer (Mus musculus / Homo sapiens?, UniProt Q08639;Q01094 Q08639:59-410,Q01094:89-437)", "sequence (Q08639 59-410, chain 1 of 2)": "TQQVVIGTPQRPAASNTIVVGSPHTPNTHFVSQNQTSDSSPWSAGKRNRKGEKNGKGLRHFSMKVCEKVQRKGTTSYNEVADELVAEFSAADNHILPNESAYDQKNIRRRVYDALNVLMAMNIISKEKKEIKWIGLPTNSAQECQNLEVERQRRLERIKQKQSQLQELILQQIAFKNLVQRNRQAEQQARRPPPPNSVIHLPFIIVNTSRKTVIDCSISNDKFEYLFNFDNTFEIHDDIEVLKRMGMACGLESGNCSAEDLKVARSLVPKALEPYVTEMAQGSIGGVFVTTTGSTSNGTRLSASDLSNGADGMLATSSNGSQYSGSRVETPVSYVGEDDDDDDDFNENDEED", "sequence (Q01094 89-437, chain 2 of 2)": "as the sequence (Q01094 89-437, one chain of several) above", "assay": "EMSA; synergistic; anti-E2F-1 supershift, anti-DP-1 inhibits", "conditions": "tags: GST on both"}, "[5]": {"biological_target": "DP-1(84-204)/E2F-1(89-437) heteromer (Mus musculus / Homo sapiens?, UniProt Q08639;Q01094 Q08639:84-204,Q01094:89-437)", "sequence (Q01094 89-437, one chain of several)": "as above", "assay": "EMSA; less than with DP-1 84-249", "conditions": "tags: DP-1 thrombin-released or GST; E2F-1 GST", "procedure": "Cell extracts were prepared as previously described (La Thangue et al., 1990). Gel retardation in F9 EC and HeLa cell extracts (about 6.0 µg) in the presence of anti-DP-1 was performed as previously described (Girling et al., 1993), and immunoprecipitation with anti-DP-1 from HeLa cell extracts was performed by standard procedures. The immunoprecipitates were treated with 1% DOC and 1.5% NP40 and the detergent released material assayed for DRTF1/E2F by gel retardation and the presence of E2F-1 by immunoblotting with the anti-E2F-1 monoclonal antibody SQ41 (Kaelin et al., 1992). The anti-DP-1 antibodies, anti-peptide A and anti-peptide 18, have been previously described (Girling et al., 1993). Rabbit anti-E2F-1 antiserum (antiserum 134) was raised against a peptide which represents E2F-1 amino acid sequence 315 to 323. The sequences of the binding sites used to assess DNA binding specificity were derived from the adenovirus E2A promoter (−71 to −50) and were as follows: WT; […] (SEQ ID NO: 7); 62/60, […]; (SEQ ID NO: 8); 63, […] (SEQ ID NO: 9); 64, […] (SEQ ID NO: 10). In FIG. 2a (tracks 1 to 4), the adenovirus E2A promoter (−96 to +68) was used; in all other cases, the distal E2F site in the E2A promoter (sequences −71 to −50) was used. About 100-fold excess of competing binding sites were used in the gel retardation assays."}, "[6]": {"biological_target": "T1, wild-type E2F-1^1-437 (Homo sapiens (Human), UniProt Q01094 1-437, radiolabelled with 35S methionine (in vitro translated form) ; chain 1: radiolabelled with 35S methionine (in vitro translated form); letters unchanged)", "T1 construct": "Translated in reticulocyte lysate for the pull-down; The same full-length protein was expressed from pE2F-1/pCMV E2F-1 in the transfection assays; also called in vitro transcribed and translated E2F-1 polypeptide; pE2F-1", "T1 sequence (Q01094 whole entry)": "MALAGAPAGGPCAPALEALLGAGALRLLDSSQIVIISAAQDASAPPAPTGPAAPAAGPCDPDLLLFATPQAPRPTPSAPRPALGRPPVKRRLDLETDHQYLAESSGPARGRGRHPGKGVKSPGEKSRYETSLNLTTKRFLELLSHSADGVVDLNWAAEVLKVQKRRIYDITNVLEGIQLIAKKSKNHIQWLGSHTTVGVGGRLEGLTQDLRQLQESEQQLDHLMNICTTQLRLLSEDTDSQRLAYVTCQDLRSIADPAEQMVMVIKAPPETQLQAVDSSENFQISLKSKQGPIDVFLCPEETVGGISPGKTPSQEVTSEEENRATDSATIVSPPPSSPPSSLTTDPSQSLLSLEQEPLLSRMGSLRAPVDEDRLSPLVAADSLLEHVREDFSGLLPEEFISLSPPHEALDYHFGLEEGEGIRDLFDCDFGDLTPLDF", "assay": "GST pull-down (glutathione-agarose) of in vitro translated 35S-labelled E2F-1", "excerpt": "DP-1 and E2F-1 were expressed as, and released from, GST fusion proteins as previously described (Girling et al., 1993). About 100-fold excess of the competing binding sites were used in gel retardation assays, with the binding site taken from the adenovirus E2A promoter (−71 to −50). The wild-type E2F-1 coding sequence was transcribed and further translated using reticulocyte lysate (Promega) and radiolabelled with ^35S methionine. In the dimerization assay (FIG. 2d), GST-DP-1 fusion protein was incubated with E2F-1 polypeptide for 30 min at 30° C., collected with glutathione-agarose (Sigma), and washed repeatedly with 0.1% NF40-in PBSA. Bound E2F-1 polypeptide was released by denaturation in SDS sample buffer and resolved in a 10% polyacrylamide gel.\nGST fusion proteins, or GST protein along (track 2), were collected with glutathione-agarose beads and bound E2F-1 polypeptide released."}}}
{"molecule": "LexA-DP-1 hybrid protein (pLEX.DP-1) (from UniProt P0A7C2 1-202)", "values": [{"measurement": "activity of p4xWT CYC1 (E2F site-dependent transcription in yeast, β-galactosidase)", "setting": "[1]", "result": 50, "unit": "fold"}, {"measurement": "transcriptional activity of the LexA reporter construct (yeast two-hybrid, β-galactosidase)", "setting": "[1]", "result": 75, "unit": "fold"}]}
{"molecule": "B1", "values": [{"measurement": "binding result", "setting": "[2]", "result": "binds"}, {"measurement": "binding result", "setting": "[3]", "result": "binds"}, {"measurement": "binding result", "setting": "[4]", "result": "binds"}, {"measurement": "binding result", "setting": "[5]", "result": "binds"}]}
{"molecule": "B2", "values": [{"measurement": "binding result", "setting": "[6]", "result": "no binding (tested: about 2 µg GST fusion protein)"}]}
